Measured values from the RNAGym collection of RNA variant scans (doi:10.1073/pnas.2313332121).

B1: TPR t1 (parent)
chain: GACCAAUCUGCCCUCAGAGCUCGAGAACAUCUUCGGAUGCAGAGGAGGCAGGCUUCGGUGGCGCGAUAGCGCCAACGUCCUCAACCUCCAAUGCAUCCCACCACAUGAUGAUGCCUGAAGAGCCUUGGUUUUUUG

Variants of: B1
Assay: polymerase ribozyme fitness, log enrichment relative to wild type (log ratio); higher = more active; in vitro selection for triplet polymerase activity
In short: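 Mutant libraries were PCR-built and transcribed for each subunit of a heterodimeric triplet polymerase ribozyme and selected for one round in triplicate at −7 °C, frozen, before gel excision of extended constructs and streptavidin-bead capture. Input and output libraries were Illumina-sequenced, keeping genotypes with ≥10 input reads and ≥1 read per output. Fitness is a logarithmic ratio of genotype to wild-type enrichment, in base 2, using inverse-variance-weighted replicate averages.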

**Q.** Which “polymerase ribozyme fitness (log ratio)” value does the source give for U9A A24G here?
**A.** -0.725

**Q.** For A24G U54C C62G, which “polymerase ribozyme fitness (log ratio)” value is on record?
**A.** -3.96

**Q.** For G69A U112A, which “polymerase ribozyme fitness (log ratio)” value is on record?
**A.** -2.26

**Q.** For U33A G42A G52U G61A A121U, which “polymerase ribozyme fitness (log ratio)” value is on record?
**A.** -5.46

**Q.** With C11U A26U U55C A75G A83C as the variant, how does the “polymerase ribozyme fitness (log ratio)” value read?
**A.** -3.24

**Q.** With C49G A50U as the variant, how does the “polymerase ribozyme fitness (log ratio)” value read?
**A.** -1.05

**Q.** Which “polymerase ribozyme fitness (log ratio)” value does the source give for U7A C34A C53A here?
**A.** -2.31

**Q.** With A18C C56A C73U C86U A90G U106A A108C U112A as the variant, how does the “polymerase ribozyme fitness (log ratio)” value read?
**A.** -5.34

**Q.** For G93A U129A, which “polymerase ribozyme fitness (log ratio)” value is on record?
**A.** -1.36

**Q.** With C12U G42A as the variant, how does the “polymerase ribozyme fitness (log ratio)” value read?
**A.** -1.82

**Q.** Which “polymerase ribozyme fitness (log ratio)” value does the source give for A37U A50C G61A G117C U130C here?
**A.** -4.59

**Q.** With A6G C49G C56G U81G C114U U132C as the variant, how does the “polymerase ribozyme fitness (log ratio)” value read?
**A.** -5.17

**Q.** Which “polymerase ribozyme fitness (log ratio)” value does the source give for C3A C15A C53U G63C here?
**A.** -3.45

**Q.** With C86U A111U as the variant, how does the “polymerase ribozyme fitness (log ratio)” value read?
**A.** -2.11

**Q.** With G69A C72U A111C U131A as the variant, how does the “polymerase ribozyme fitness (log ratio)” value read?
**A.** -3.01

**Q.** Which “polymerase ribozyme fitness (log ratio)” value does the source give for C98U A108G here?
**A.** -6.36

**Q.** Which “polymerase ribozyme fitness (log ratio)” value does the source give for G42C G47U G52C C114A A118G here?
**A.** -6.7

**Q.** For C28U G71C, which “polymerase ribozyme fitness (log ratio)” value is on record?
**A.** -2.78

**Q.** Which “polymerase ribozyme fitness (log ratio)” value does the source give for A26U C62U A83C C104G A105C C114U U129A here?
**A.** -7.45

**Q.** Which “polymerase ribozyme fitness (log ratio)” value does the source give for G48A C88A G113U G120A here?
**A.** -4.63

**Q.** For G35A A100G, which “polymerase ribozyme fitness (log ratio)” value is on record?
**A.** -6.42

**Q.** Which “polymerase ribozyme fitness (log ratio)” value does the source give for A50U A83G here?
**A.** -0.122

**Q.** For G19A G51C, which “polymerase ribozyme fitness (log ratio)” value is on record?
**A.** -5.83

**Q.** For C49A C85U G113A A119C, which “polymerase ribozyme fitness (log ratio)” value is on record?
**A.** -4.02

**Q.** For G48A C73U C82U G93U, which “polymerase ribozyme fitness (log ratio)” value is on record?
**A.** -1.54

**Q.** Which “polymerase ribozyme fitness (log ratio)” value does the source give for G23A G69U here?
**A.** -3.97

**Q.** Which “polymerase ribozyme fitness (log ratio)” value does the source give for C15U G39A G60A G117C G120A here?
**A.** -4.8

**Q.** With C22G C40A G69C G113A as the variant, how does the “polymerase ribozyme fitness (log ratio)” value read?
**A.** -5.15

**Q.** For C12A C56U C94G, which “polymerase ribozyme fitness (log ratio)” value is on record?
**A.** -2.21

**Q.** Which “polymerase ribozyme fitness (log ratio)” value does the source give for C85A C89U U92G G117A here?
**A.** -4.94

**Q.** With A46C C72A C123U as the variant, how does the “polymerase ribozyme fitness (log ratio)” value read?
**A.** 0.713

**Q.** For C4U G45C, which “polymerase ribozyme fitness (log ratio)” value is on record?
**A.** -2.12

**Q.** Which “polymerase ribozyme fitness (log ratio)” value does the source give for G39U G69U here?
**A.** 0.0399

**Q.** With A41U C53U as the variant, how does the “polymerase ribozyme fitness (log ratio)” value read?
**A.** -1.15

**Q.** With C31G A37U G71A C76U U78G A105C G110C as the variant, how does the “polymerase ribozyme fitness (log ratio)” value read?
**A.** -6.15

**Q.** For C11U U33G A121C, which “polymerase ribozyme fitness (log ratio)” value is on record?
**A.** -4.56

**Q.** With C49U G51A G63C as the variant, how does the “polymerase ribozyme fitness (log ratio)” value read?
**A.** -3

**Q.** Which “polymerase ribozyme fitness (log ratio)” value does the source give for C12U G63A here?
**A.** -0.293

**Q.** Which “polymerase ribozyme fitness (log ratio)” value does the source give for G48A A95U here?
**A.** -1.28

**Q.** For G63U U78C C94A, which “polymerase ribozyme fitness (log ratio)” value is on record?
**A.** -3.61

**Q.** For C12G C94U, which “polymerase ribozyme fitness (log ratio)” value is on record?
**A.** -0.437

**Q.** With C70G G120U as the variant, how does the “polymerase ribozyme fitness (log ratio)” value read?
**A.** -2.36

**Q.** Which “polymerase ribozyme fitness (log ratio)” value does the source give for C49G C124A here?
**A.** 1.39

**Q.** For C13A A91C U96C, which “polymerase ribozyme fitness (log ratio)” value is on record?
**A.** -2.79

**Q.** Which “polymerase ribozyme fitness (log ratio)” value does the source give for C8U C20G here?
**A.** -3.53

**Q.** With A18C C56G C124A as the variant, how does the “polymerase ribozyme fitness (log ratio)” value read?
**A.** -0.202

**Q.** With C8U C70U G110A as the variant, how does the “polymerase ribozyme fitness (log ratio)” value read?
**A.** -1.5

**Q.** Which “polymerase ribozyme fitness (log ratio)” value does the source give for C11G C20U G69U A84U C85U G122A U126G G128U here?
**A.** -2.39

**Q.** Which “polymerase ribozyme fitness (log ratio)” value does the source give for C104G C124U here?
**A.** -6.14

**Q.** With G48A A111C as the variant, how does the “polymerase ribozyme fitness (log ratio)” value read?
**A.** -0.446

**Q.** For A16C C64U U78C U87A G113U U116A, which “polymerase ribozyme fitness (log ratio)” value is on record?
**A.** -7.76

**Q.** For A18U G127C, which “polymerase ribozyme fitness (log ratio)” value is on record?
**A.** -3.45

**Q.** With A6C U7C as the variant, how does the “polymerase ribozyme fitness (log ratio)” value read?
**A.** -0.0861

**Q.** For G71A C82A C89U, which “polymerase ribozyme fitness (log ratio)” value is on record?
**A.** -1.01

**Q.** For A103U G110C, which “polymerase ribozyme fitness (log ratio)” value is on record?
**A.** -7.11

**Q.** With G45U G110C as the variant, how does the “polymerase ribozyme fitness (log ratio)” value read?
**A.** -4.47

**Q.** Which “polymerase ribozyme fitness (log ratio)” value does the source give for U38A G45U G52A U131G here?
**A.** -3.68

**Q.** With U38A G60A C79U as the variant, how does the “polymerase ribozyme fitness (log ratio)” value read?
**A.** -1.22

**Q.** Which “polymerase ribozyme fitness (log ratio)” value does the source give for U92A C115G C123G here?
**A.** -5.89

**Q.** For G63U G113C, which “polymerase ribozyme fitness (log ratio)” value is on record?
**A.** -2.98

**Q.** Which “polymerase ribozyme fitness (log ratio)” value does the source give for C12U G93A here?
**A.** -0.0469

**Q.** Which “polymerase ribozyme fitness (log ratio)” value does the source give for A16U G127U here?
**A.** -2.81

**Q.** For G10U C12U C82A A84G, which “polymerase ribozyme fitness (log ratio)” value is on record?
**A.** -0.497

**Q.** Which “polymerase ribozyme fitness (log ratio)” value does the source give for C97A G117U here?
**A.** -5.67

**Q.** With A6U G36U as the variant, how does the “polymerase ribozyme fitness (log ratio)” value read?
**A.** -1.07

**Q.** Which “polymerase ribozyme fitness (log ratio)” value does the source give for U9A G45U here?
**A.** -2.23

**Q.** With G61A C89U as the variant, how does the “polymerase ribozyme fitness (log ratio)” value read?
**A.** -0.458

**Q.** Which “polymerase ribozyme fitness (log ratio)” value does the source give for G36U A37C C104U here?
**A.** -1.76

**Q.** For C11A G63C U81G, which “polymerase ribozyme fitness (log ratio)” value is on record?
**A.** -5.33

**Q.** With C34G C123G as the variant, how does the “polymerase ribozyme fitness (log ratio)” value read?
**A.** -4.46

**Q.** Which “polymerase ribozyme fitness (log ratio)” value does the source give for C3A G44C U112G C124U U125C here?
**A.** -1.64

**Q.** Which “polymerase ribozyme fitness (log ratio)” value does the source give for A66C U78C C101G C123A U132A here?
**A.** -3.72

**Q.** For A2G C34A A46G C73A, which “polymerase ribozyme fitness (log ratio)” value is on record?
**A.** -2.49

**Q.** For C72G U92C C94A, which “polymerase ribozyme fitness (log ratio)” value is on record?
**A.** -3.47

**Q.** Which “polymerase ribozyme fitness (log ratio)” value does the source give for C62G U130A here?
**A.** -1.59

**Q.** For C3G C11G G19U G120A, which “polymerase ribozyme fitness (log ratio)” value is on record?
**A.** -3.18

**Q.** Which “polymerase ribozyme fitness (log ratio)” value does the source give for U59A C89U here?
**A.** -0.0389

**Q.** Which “polymerase ribozyme fitness (log ratio)” value does the source give for A50C C88A here?
**A.** -1.03

**Q.** With C8U C28G C70A U131A as the variant, how does the “polymerase ribozyme fitness (log ratio)” value read?
**A.** -4.27

**Q.** With U21A C70A C86U A111C as the variant, how does the “polymerase ribozyme fitness (log ratio)” value read?
**A.** -5.59

**Q.** For U81C C102U, which “polymerase ribozyme fitness (log ratio)” value is on record?
**A.** -2.2

**Q.** Which “polymerase ribozyme fitness (log ratio)” value does the source give for G17C G60A here?
**A.** -4.31

**Q.** For C64U A103U, which “polymerase ribozyme fitness (log ratio)” value is on record?
**A.** -3.47

**Q.** Which “polymerase ribozyme fitness (log ratio)” value does the source give for C72G G77U here?
**A.** -1.71
